Source: patent US20250163146A1 (H LEE MOFFITT CANCER CENTER AND RESEARCH INSTITUTE, published 2025)

Assays:
[1] = molecular target: T1, biotinylated murine DLL4 protein, truncation containing the C2, DSL, and EGF1-3 domains (DLL4 (N-EGF3)) (mouse, UniProt Q9JI71 27-324, limits assumed, biotinylated (site not stated)); test: yeast display, flow cytometry (FIG. 1)
T1 construct: domain: C2, DSL, and EGF1-3 domains (N-EGF3); also called mDLL4; mouse DLL4
Description: (§1) 162. To isolate binding molecules that interrupted the interaction of DLL4 and Notch1, we performed several rounds of selection using decreasing concentrations of biotinylated murine DLL4 protein. The mDLL4 protein was a truncation that contained the C2, DSL, and EGF1-3 domains (DLL4 (N-EGF3)). To perform a selection, the library was stained with biotinylated mDLL4, washed, incubated with streptavidin-647, washed, and then binders isolated selected using either (a) magnetic beads coated with an anti-647 antibody or (b) FACS. The mDLL4-binding yeast were then plated so that individual colonies could be picked and cultured to isolate individual clones. The clones were then each stained with mDLL4 and SA-647 and analyzed by flow cytometry to confirm that they bound to mDLL4. (FIG. 1).

[2] = molecular target: T2, human DLL4 (N-EGF3) (human, UniProt Q9NR61 27-323, limits assumed, biotinylated (site not stated); used unlabeled in the complex with biotinylated hNotch1 (6-13)); test: yeast display, biotinylated human DLL4 (N-EGF3) + SA-647, flow cytometry
T2 construct: domain: N-EGF3; also called hDLL4; hDLL4 (N-3)
Description: (§2) The eight anti-DLL4 nanobody clones were then tested for cross-reactivity between human and mouse DLL4. Yeast cells expressing each nanobody were stained with biotinylated human DLL4 (N-EGF3), washed, stained with SA-647, and then analyzed by flow cytometry.

[3] = molecular target: T3, human DLL4 (N-terminus to EGF5) (human, UniProt Q9NR61 27-401, limits assumed, biotinylated in the flow cytometry titration (site not stated); not stated for the plate-coated protein); test: nanobody incubated with increasing concentrations of biotinylated human DLL4 (N-terminus to EGF5), streptavidin Alexa Fluor 647, flow cytometry
T3 construct: domain: N-terminus to EGF5 (C2, DSL, and EGF1-5 domains); also called recombinant human DLL4 protein containing the C2, DSL, and EGF1-5 domains
Description: 166. To determine the ability of the C4 and C5 nanobodies to bind DLL4, C4 and C5 nanobodies were incubated with increasing concentrations of biotinylated human DLL4 (N-terminus to EGF5) and binding was detected using streptavidin labeled with Alexa Fluor 647. Fluorescence was then monitored by flow cytometry and EC50 values were calculated for each nanobody (FIG. 5).

[4] = molecular target: T2, human DLL4 (N-EGF3); test: yeast display, biotinylated human DLL4 (N-EGF3), SA-647, flow cytometry
Description: as §2

[5] = molecular target: T1, biotinylated murine DLL4 protein, …; test: yeast display, biotinylated mDLL4 + SA-647, flow cytometry
Description: as §1

T1 sequence (Q9JI71 27-324 limits assumed): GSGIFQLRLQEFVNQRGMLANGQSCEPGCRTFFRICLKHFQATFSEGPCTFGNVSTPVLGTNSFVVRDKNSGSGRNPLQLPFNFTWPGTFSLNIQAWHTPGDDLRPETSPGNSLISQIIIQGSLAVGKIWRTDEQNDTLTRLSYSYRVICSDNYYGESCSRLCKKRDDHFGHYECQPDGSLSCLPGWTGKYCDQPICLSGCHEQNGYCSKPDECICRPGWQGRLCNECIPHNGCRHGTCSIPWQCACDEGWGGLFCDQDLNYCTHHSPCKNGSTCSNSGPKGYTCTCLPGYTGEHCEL
T2 sequence (Q9NR61 27-323 limits assumed): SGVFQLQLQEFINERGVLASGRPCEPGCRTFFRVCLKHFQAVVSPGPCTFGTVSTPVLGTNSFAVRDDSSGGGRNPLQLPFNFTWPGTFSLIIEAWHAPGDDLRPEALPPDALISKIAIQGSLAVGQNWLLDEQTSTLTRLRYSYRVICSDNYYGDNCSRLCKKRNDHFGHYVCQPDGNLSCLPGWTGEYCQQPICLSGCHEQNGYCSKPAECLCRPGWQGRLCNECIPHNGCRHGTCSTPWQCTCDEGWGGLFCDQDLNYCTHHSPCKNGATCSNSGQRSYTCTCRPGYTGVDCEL
T3 sequence (Q9NR61 27-401 limits assumed): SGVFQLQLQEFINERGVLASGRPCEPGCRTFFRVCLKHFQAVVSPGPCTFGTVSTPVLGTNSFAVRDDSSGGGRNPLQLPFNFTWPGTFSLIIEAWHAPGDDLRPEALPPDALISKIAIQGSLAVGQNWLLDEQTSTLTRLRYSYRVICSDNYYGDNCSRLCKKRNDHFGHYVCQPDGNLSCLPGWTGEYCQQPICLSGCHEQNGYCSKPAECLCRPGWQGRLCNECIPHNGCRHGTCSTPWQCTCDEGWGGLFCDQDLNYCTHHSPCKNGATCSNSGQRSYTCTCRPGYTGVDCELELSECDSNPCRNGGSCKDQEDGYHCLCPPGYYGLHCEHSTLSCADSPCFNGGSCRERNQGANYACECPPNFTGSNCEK

Row | binding result [1] | binding result [2] | binding result [3] | binding result [4] | binding result [5] | Binder
1 | binds | – | – | no binding | – | nanobody clone A9 (VHH) VHH: QVQLQESGGGLVQAGGSLRLSCAASGTISQDSGMGWYRQAPGKEREFVAGITAGSITYYADSVKGRFTISRDNAKNTVYLQMNSLKPEDTAVYYCAASYVSVQAHTYWGQGTQVTVSS
2 | binds | – | – | no binding | – | nanobody clone B4 (VHH) VHH: QVQLQESGGGLVQAGGSLRLSCAASGNISVWIPMGWYRQAPGKEREFVASIGEGSTTYYADSVKGRFTISRDNAKNTVYLQMNSLKPEDTAVYYCAVPYYGHSDYDYWGQGTQVTVSS
3 | binds | binds | binds | – | – | nanobody clone C4 (VHH) VHH: QVQLQESGGGLVQAGGSLRLSCAASGSISGDVEMGWYRQAPGKEREFVAGINDGGNTYYADSVKGRFTISRDNAKNTVYLQMNSLKPEDTAVYYCAVSTTYPSYNESQYADWLAYWGQGTQVTVSS

Continued, binder first:

Row | Binder | binding result [1] | binding result [2] | binding result [3] | binding result [4] | binding result [5]
4 | nanobody clone C5 (VHH) VHH: QVQLQESGGGLVQAGGSLRLSCAASGNISTGTAMGWYRQAPGKEREFVAGIAYGATTYYADSVKGRFTISRDNAKNTVYLQMNSLKPEDTAVYYCAVEVSQSTPGGRYSVAYLIYWGQGTQVTVSS | binds | binds | binds | – | –
5 | nanobody clone B1 (VHH) VHH: QVQLQESGGGLVQAGGSLRLSCAASGTIFYSSDMGWYRQAPGKEREFVAGINRGSTTYYADSVKGRFTISRDNAKNTVYLQMNSLKPEDTAVYYCAVVSDVLTRLFYWGQGTQVTVSS | binds | binds | – | – | –
6 | nanobody clone A8 (VHH) VHH: QVQLQESGGGLVQAGGSLRLSCAASGTIFEERVMGWYRQAPGKEREFVAGIASGAITYYADSVKGRFTISRDNAKNTVYLQMNSLKPEDTAVYYCAAQGYSFKTKPDYSAYVLVYWGQGTQVTVSS | binds | – | – | no binding | –
7 | nanobody clone C2 (VHH) VHH: QVQLQESGGGLVQAGGSLRLSCAASGSISVVYGMGWYRQAPGKEREFVAGISYGGSTYYADSVKGRFTISRDNAKNTVYLQMNSLKPEDTAVYYCAVDASYWDTLVYWGQGTQVTVSS | binds | – | – | no binding | –
8 | nanobody clone A7 (VHH) VHH: QVQLQESGGGLVQAGGSLRLSCAASGNIFYTYSMGWYRQAPGKEREFVAAISAGTITYYADSVKGRFTISRDNAKNTVYLQMNSLKPEDTAVYYCAVFAPRDVIHYYWGQGTQVTVSS | – | binds | – | – | binds
